Non-standard residues stand in square brackets, D forms with d. No end group written: not given here. *: point of attachment. NH(3,5-(CF3)2-benzyl) = FC(F)(F)c1cc(CN*)cc(C(F)(F)F)c1; βGlc = OC[C@H]1O[C@@H](*)[C@H](O)[C@@H](O)[C@@H]1O; Nle = CCCC[C@H](N)C(=O)O
B1: Tyr-D-Ala-Gly-Phe-Nle-Pro-Leu-Trp-NH-3’,5’-Bzl(CF3)2 (peptide)
chain: YAGFXPLW
modifications: D-Ala at 2; norleucine (Nle) at 5 (written X); C-terminal 3’,5’-bis(trifluoromethyl)benzyl amide (Trp-NH-3’,5’-Bzl(CF3)2)

Legend:
rat μ-opioid receptor [1] = molecular target: T1, rat μ-opioid receptor (rat, UniProt P33535 1-398); assay: radioligand binding
human δ-opioid receptor [2] = molecular target: T2, human δ-opioid receptor (human, UniProt P41143 1-372); assay: cell-based or functional assay
rat μ-opioid receptor [3] = molecular target: T1, rat μ-opioid receptor; assay: cell-based or functional assay
human NK1 receptor = human NK1 receptor (human, UniProt P25103 1-407); assay: radioligand binding
human δ-opioid receptor [4] = molecular target: T2, human δ-opioid receptor; assay: radioligand binding
rat NK1 receptor = rat NK1 receptor (rat, UniProt P14600 1-407); assay: radioligand binding
rat NK1 receptor, sequence (P14600 whole entry): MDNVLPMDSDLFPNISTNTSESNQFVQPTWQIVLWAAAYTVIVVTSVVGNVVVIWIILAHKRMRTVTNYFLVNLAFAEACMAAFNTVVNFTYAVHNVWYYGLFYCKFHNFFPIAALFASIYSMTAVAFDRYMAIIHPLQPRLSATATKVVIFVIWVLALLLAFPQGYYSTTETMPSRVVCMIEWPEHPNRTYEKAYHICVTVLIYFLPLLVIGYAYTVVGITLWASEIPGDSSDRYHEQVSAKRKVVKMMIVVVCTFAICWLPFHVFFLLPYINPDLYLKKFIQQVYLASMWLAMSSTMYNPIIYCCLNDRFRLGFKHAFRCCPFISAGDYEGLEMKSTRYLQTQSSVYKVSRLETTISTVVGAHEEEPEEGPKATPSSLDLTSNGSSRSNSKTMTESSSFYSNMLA

human NK1 receptor, sequence (P25103 whole entry): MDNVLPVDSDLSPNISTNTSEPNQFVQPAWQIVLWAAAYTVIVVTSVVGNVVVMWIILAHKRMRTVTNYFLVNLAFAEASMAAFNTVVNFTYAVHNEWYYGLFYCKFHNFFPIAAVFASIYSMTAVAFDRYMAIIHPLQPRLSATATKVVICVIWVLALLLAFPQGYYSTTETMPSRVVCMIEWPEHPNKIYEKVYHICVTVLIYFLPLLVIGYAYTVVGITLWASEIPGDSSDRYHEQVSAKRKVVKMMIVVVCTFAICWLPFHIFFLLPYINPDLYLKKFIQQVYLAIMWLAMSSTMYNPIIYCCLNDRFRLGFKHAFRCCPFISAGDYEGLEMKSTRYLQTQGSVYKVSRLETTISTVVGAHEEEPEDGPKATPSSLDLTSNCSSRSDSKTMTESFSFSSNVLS
T2 sequence (P41143 whole entry, stated change not applied): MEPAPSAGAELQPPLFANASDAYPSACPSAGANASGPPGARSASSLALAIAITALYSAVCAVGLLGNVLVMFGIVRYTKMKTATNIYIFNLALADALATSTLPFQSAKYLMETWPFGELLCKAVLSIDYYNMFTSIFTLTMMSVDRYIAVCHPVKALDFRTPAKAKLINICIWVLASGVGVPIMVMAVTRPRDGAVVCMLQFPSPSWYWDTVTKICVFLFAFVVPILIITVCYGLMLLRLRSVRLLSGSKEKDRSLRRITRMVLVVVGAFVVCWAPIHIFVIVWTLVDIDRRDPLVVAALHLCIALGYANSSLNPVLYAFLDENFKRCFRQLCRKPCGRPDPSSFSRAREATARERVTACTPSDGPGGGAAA
T1 sequence (P33535 whole entry): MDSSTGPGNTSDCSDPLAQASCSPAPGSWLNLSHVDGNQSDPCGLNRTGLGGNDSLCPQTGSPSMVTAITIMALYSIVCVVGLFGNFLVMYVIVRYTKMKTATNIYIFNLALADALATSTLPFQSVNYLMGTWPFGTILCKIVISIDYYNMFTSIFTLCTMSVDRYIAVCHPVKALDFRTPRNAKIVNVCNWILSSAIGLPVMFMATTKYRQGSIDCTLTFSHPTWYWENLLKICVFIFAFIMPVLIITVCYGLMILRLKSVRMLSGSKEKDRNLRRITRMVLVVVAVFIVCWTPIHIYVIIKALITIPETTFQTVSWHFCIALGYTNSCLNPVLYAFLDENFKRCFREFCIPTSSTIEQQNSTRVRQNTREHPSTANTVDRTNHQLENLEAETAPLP

Row | Binder | Ki (rat μ-opioid receptor [1]) | LogIC50 (rat μ-opioid receptor [1]) | [35S]GTPγS binding, HN9.10 membranes expressing hDOR: Emax (human δ-opioid receptor [2]) | [35S]GTPγS binding, HN9.10 membranes expressing rMOR: EC50 (rat μ-opioid receptor [3]) | [35S]GTPγS binding, HN9.10 membranes expressing rMOR: Emax (rat μ-opioid receptor [3]) | [35S]GTPγS binding, HN9.10 membranes expressing rMOR: LogEC50 (rat μ-opioid receptor [3]) | Ki (human NK1 receptor) | LogIC50 (human NK1 receptor) | [35S]GTPγS binding, HN9.10 membranes expressing hDOR: EC50 (human δ-opioid receptor [2]) | [35S]GTPγS binding, HN9.10 membranes expressing hDOR: LogEC50 (human δ-opioid receptor [2]) | LogIC50 (human δ-opioid receptor [4]) | Ki (rat NK1 receptor) | LogIC50 (rat NK1 receptor) | Ki (human δ-opioid receptor [4])
1 | Y[dA]GF[Nle]S(βGlc)LW-{NH(3,5-(CF3)2-benzyl)} [Tyr-D-Ala-Gly-Phe-Nle-Ser(Glc)-Leu-Trp-NH-3’,5’-Bzl(CF3)2] | 3400 nM | -5.15 | 130% | 380 nM | 81% | -6.42 | 1.8 nM | -8.38 |  |  |  |  |  | 
2 | Y[dA]GF[Nle]PS(βGlc)W-{NH(3,5-(CF3)2-benzyl)} [Tyr-D-Ala-Gly-Phe-Nle-Pro-Ser(Glc)-Trp-NH-3’,5’-Bzl(CF3)2] | 8 nM | -7.77 | 64% | 18 nM | 38% | -7.75 |  |  | 7.9 nM | -8.1 | -8.1 | 14 nM | -7.3 | 
3 | B1 |  |  | 120% |  |  |  | 0.0028 nM | -11.6 | 5 nM | -8.3 | -8.67 |  |  | 1 nM
4 | Y[dA]GF[Nle]PLS(βGlc)W-{NH(3,5-(CF3)2-benzyl)} [Tyr-D-Ala-Gly-Phe-Nle-Pro-Leu-Ser(Glc)-Trp-NH-3’,5’-Bzl(CF3)2] |  | -7.22 | 49% |  | 50% | -8.21 |  | -9.93 |  | -7.56 |  |  | -7.02 | 
5 | Y[dA]GFS(βGlc)PLW-{NH(3,5-(CF3)2-benzyl)} [Tyr-D-Ala-Gly-Phe-Ser(Glc)-Pro-Leu-Trp-NH-3’,5’-Bzl(CF3)2] | 260 nM | -6.12 |  | 180 nM |  | -6.76 | 0.0011 nM | -12.2 | 52 nM | -7.29 | -6.91 | 1.5 nM | -8.35 | 59 nM

Source: paper PMC3521585 (Journal of medicinal chemistry, 2009)
